Assay results taken from patent US20140274782A1, “AFFINITY REAGENTS AND METHODS FOR DETECTION, PURIFICATION, AND PROTEOMIC ANALYSIS OF METHYLATED PROTEINS” (The Board of Trustees of the Leland Stanford Junior …, priority 2013, published 2014).

T1: G9a and GLP (Homo sapiens, UniProt Q96KQ7+Q9H9B1)
T1 sequence (Q96KQ7 2-1210 limits assumed): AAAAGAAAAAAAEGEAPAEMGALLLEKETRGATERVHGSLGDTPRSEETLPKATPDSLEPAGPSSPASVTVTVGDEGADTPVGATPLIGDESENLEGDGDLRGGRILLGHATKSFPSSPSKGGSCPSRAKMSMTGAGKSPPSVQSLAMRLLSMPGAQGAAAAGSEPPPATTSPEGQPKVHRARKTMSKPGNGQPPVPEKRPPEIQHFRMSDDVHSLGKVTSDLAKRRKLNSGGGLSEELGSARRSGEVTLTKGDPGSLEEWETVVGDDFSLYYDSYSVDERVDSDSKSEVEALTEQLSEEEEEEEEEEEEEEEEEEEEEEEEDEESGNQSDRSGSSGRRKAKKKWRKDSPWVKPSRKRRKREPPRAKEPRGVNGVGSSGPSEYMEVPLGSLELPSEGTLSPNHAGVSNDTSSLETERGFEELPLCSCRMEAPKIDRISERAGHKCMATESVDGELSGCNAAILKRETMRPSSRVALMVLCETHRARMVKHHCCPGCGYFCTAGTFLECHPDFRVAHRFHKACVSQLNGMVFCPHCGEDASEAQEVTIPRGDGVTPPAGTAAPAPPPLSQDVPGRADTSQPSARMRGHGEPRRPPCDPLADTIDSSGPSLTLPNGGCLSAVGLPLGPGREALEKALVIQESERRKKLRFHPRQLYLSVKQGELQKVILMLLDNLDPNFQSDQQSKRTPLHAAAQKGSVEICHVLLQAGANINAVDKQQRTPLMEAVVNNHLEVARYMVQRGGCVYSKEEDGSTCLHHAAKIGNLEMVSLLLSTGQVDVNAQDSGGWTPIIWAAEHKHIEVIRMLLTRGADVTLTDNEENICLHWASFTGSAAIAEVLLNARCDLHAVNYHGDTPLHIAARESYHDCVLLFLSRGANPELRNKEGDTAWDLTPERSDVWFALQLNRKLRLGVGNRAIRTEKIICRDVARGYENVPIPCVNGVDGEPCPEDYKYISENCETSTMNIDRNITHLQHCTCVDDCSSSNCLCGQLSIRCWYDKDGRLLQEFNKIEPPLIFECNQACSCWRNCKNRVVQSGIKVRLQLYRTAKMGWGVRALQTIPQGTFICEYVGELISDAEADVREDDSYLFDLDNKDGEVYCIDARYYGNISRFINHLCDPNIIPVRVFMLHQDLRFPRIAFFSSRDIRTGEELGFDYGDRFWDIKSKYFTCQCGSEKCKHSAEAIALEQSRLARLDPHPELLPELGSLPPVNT
T1 sequence (Q9H9B1 2-1298 limits assumed): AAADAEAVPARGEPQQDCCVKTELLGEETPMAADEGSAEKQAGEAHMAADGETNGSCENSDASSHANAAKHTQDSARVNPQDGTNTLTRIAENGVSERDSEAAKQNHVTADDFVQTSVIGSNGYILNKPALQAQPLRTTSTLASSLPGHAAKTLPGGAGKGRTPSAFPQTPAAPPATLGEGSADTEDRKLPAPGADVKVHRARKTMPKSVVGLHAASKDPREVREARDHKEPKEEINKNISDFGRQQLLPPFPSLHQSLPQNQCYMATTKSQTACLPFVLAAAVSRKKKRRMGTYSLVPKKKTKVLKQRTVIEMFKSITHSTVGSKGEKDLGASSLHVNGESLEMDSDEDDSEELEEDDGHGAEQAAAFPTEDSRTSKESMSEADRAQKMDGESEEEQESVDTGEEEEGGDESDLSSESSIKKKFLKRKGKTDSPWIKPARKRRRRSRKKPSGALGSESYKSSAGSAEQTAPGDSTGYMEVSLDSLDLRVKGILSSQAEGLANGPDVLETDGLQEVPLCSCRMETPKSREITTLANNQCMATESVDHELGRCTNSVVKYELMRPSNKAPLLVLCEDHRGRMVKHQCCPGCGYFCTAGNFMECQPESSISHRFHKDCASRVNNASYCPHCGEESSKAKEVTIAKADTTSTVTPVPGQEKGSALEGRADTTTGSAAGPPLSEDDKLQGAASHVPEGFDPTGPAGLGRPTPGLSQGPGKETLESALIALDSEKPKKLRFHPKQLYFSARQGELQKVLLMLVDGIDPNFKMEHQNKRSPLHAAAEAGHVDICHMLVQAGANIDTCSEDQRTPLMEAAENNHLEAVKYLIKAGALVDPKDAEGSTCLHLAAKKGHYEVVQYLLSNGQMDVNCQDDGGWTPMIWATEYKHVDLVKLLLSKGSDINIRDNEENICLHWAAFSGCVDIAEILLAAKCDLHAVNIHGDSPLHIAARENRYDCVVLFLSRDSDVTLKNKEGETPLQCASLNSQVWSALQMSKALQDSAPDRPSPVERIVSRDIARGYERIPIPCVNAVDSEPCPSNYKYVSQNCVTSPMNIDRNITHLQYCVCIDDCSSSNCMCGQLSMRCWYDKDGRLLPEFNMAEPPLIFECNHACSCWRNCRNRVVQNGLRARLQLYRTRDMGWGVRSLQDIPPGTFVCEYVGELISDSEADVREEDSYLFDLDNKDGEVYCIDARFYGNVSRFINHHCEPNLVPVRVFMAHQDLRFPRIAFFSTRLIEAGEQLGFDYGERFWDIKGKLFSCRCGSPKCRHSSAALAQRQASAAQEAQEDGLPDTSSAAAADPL

B1: KHSRP (protein, UniProt Q92945 2-711, looked up)
Far upstream element-binding …: SDYSTGGPPPGPPPPAGGGGGAGGAGGGPPPGPPGAGDRGGGGPGGGGPGGGSAGGPSQPPGGGGPGIRKDAFADAVQRARQIAAKIGGDAATTVNNSTPDFGFGGQKRQLEDGDQPESKKLASQGDSISSQLGPIHPPPRTSMTEEYRVPDGMVGLIIGRGGEQINKIQQDSGCKVQISPDSGGLPERSVSLTGAPESVQKAKMMLDDIVSRGRGGPPGQFHDNANGGQNGTVQEIMIPAGKAGLVIGKGGETIKQLQERAGVKMILIQDGSQNTNVDKPLRIIGDPYKVQQACEMVMDILRERDQGGFGDRNEYGSRIGGGIDVPVPRHSVGVVIGRSGEMIKKIQNDAGVRIQFKQDDGTGPEKIAHIMGPPDRCEHAARIINDLLQSLRSGPPGPPGGPGMPPGGRGRGRGQGNWGPPGGEMTFSIPTHKCGLVIGRGGENVKAINQQTGAFVEISRQLPPNGDPNFKLFIIRGSPQQIDHAKQLIEEKIEGPLCPVGPGPGGPGPAGPMGPFNPGPFNQGPPGAPPHAGGPPPHQYPPQGWGNTYPQWQPPAPHDPSKAAAAAADPNAAWAAYYSHYYQQPPGPVPGPAPAPAAPPAQGEPPQPPPTGQSDYTKAWEEYYKKIGQQPQQPGAPPQQDYTKAWEEYYKKQAQVATGGGPGAPPGSQPDYSAAWAEYYRQQAAYYGQTPGPGGPQPPPTQQGQQQAQ
B2: AMOT (protein, UniProt Q4VCS5 1-1084, looked up)
Angiomotin: MRNSEEQPSGGTTVLQRLLQEQLRYGNPSENRSLLAIHQQATGNGPPFPSGSGNPGPQSDVLSPQDHHQQLVAHAARQEPQGQEIQSENLIMEKQLSPRMQNNEELPTYEEAKVQSQYFRGQQHASVGAAFYVTGVTNQKMRTEGRPSVQRLNPGKMHQDEGLRDLKQGHVRSLSERLMQMSLATSGVKAHPPVTSAPLSPPQPNDLYKNPTSSSEFYKAQGPLPNQHSLKGMEHRGPPPEYPFKGMPPQSVVCKPQEPGHFYSEHRLNQPGRTEGQLMRYQHPPEYGAARPAQDISLPLSARNSQPHSPTSSLTSGGSLPLLQSPPSTRLSPARHPLVPNQGDHSAHLPRPQQHFLPNQAHQGDHYRLSQPGLSQQQQQQQQQHHHHHHHQQQQQQQPQQQPGEAYSAMPRAQPSSASYQPVPADPFAIVSRAQQMVEILSDENRNLRQELEGCYEKVARLQKVETEIQRVSEAYENLVKSSSKREALEKAMRNKLEGEIRRMHDFNRDLRERLETANKQLAEKEYEGSEDTRKTISQLFAKNKESQREKEKLEAELATARSTNEDQRRHIEIRDQALSNAQAKVVKLEEELKKKQVYVDKVEKMQQALVQLQAACEKREQLEHRLRTRLERELESLRIQQRQGNCQPTNVSEYNAAALMELLREKEERILALEADMTKWEQKYLEENVMRHFALDAAATVAAQRDTTVISHSPNTSYDTALEARIQKEEEEILMANKRCLDMEGRIKTLHAQIIEKDAMIKVLQQRSRKEPSKTEQLSCMRPAKSLMSISNAGSGLLSHSSTLTGSPIMEEKRDDKSWKGSLGILLGGDYRAEYVPSTPSPVPPSTPLLSAHSKTGSRDCSTQTERGTESNKTAAVAPISVPAPVAAAATAAAITATAATITTTMVAAAPVAVAAAAAPAAAAAPSPATAAATAAAVSPAAAGQIPAAASVASAAAVAPSAAAAAAVQVAPAAPAPVPAPALVPVPAPAAAQASAPAQTQAPTSAPAVAPTPAPTPTPAVAQAEVPASPATGPGPHRLSIPSLTCNPDKTDGPVFHSNTLERKTPIQILGQEPDAEMVEYLI

How the values were obtained:
3×MBT domain of L3MBTL1 = assay: Triple SILAC pull-down, 3xMBT/3xMBTD355N ratio (cytoplasmic, nuclear and chromatin fractions of 293T cells); format: binding, human; conditions: SILAC ratio, pull-down 3xMBT vs 3xMBTD355N; for 3xMBT/D355N UNC Heavy: experiment with UNC0638 in heavy SILAC media; for 3xMBT/D355N UNC Light: experiment with UNC0638 in light SILAC media;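 as to all read-outs here: proteins quantified with MaxQuant, requiring at least two unique peptides and quantification in both label directions, normalized to the mean of proteins from a digested loading control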
Description: For stable isotope labeling by amino acids in cell culture (SILAC) experiments HEK 293T cells were grown for at least six doublings in DMEM for SILAC supplemented with 10% dialyzed fetal bovine serum (FBS), 230 mg/L L-proline and either 100 mg/L each of L-lysine and L-arginine (“light” medium), D4-L-lysine and ^13C6-L-arginine (“medium” media), or ^13C6^15N2-L-lysine and ^13C6^15N4-L-arginine (Thermo Scientific). Heavy methyl labeling used DMEM without L-Methionine or L-Cysteine supplemented with D3^13C-L-Methionine (Sigma), L-Cysteine (Sigma) and 10% dialyzed FBS.
For UNC0638 treatments cells were treated for 24 hours with UNC0638 at 2.5 μM or DMSO vehicle control. One experiment treated cells in light media with UNC0638, the other treated cells in heavy media. Both experiments included cells in medium media treated with DMSO for negative control pull-down with 3×MBTD355N.
UNC0638 treatment experiments used a Q-Exactive mass spectrometer (ThermoFisher Scientific). A 25 cm HPLC column with 3 μm Reliasil (Orochem) was used to separate peptides over a 4 hour gradient from 0 to 75% acetonitrile. Ions were generated using a custom nanospray source flowing at 250 nL/minute. Mass spectrometry settings were 70,000 MS1 resolution, data dependent selection of up to 20 precursor ions per cycle, dynamic exclusion of 30 seconds and isolation window of 2 m/z. The nuclear fraction from the experiment using UNC0638 on cells in heavy media was additionally analyzed by 2D HPLC-MS/MS as described earlier.
Peptides were identified and quantified using MaxQuant version 1.2.2.5 (Cox and Mann, supra) with the following changes to default settings: mono- and di-methylation of lysine, and oxidation of methionine, and N-terminal acetylation as variable modifications, disabled “I=L”, up to three modifications per peptide, one missed cleavage, maximum charge of 5. Protein and peptide FDR were set to 1%, and proteins were filtered post-hoc for at least two unique peptides. Proteins were excluded from an experiment if they were not quantified in both labeling directions. Because FDR is unreliable for small numbers of peptides the modification site FDR was set to 10% and all methylated peptides were manually verified. […] Quantitative protein data was normalized to the mean value among proteins identified by analyzing 50 ng of digested loading control.
For UNC0638 experiments the treated vs. untreated ratio was determined by subtracting the value from 3×MBTD355N prior to dividing values from the light and heavy channels. Only proteins showing a two-fold signal to background ratio (3×MBT/3×MBTD355N) were evaluated as potential G9a/GLP substrates.

G9a and GLP = target: T1, G9a and GLP; assay: Triple SILAC pull-down after UNC0638 treatment of 293T cells, DMSO/UNC0638 ratio of protein captured by 3×MBT; format: cell-based; parameters: endogenous in cells; host or cells: HEK 293T; conditions: for Relative to UNC0638 UNC Heavy / Relative to UNC0638 UNC Light: SILAC ratio DMSO/UNC0638 of protein pulled down with 3xMBT; for Relative to UNC0638 UNC Heavy: UNC0638 in heavy SILAC media; for Relative to UNC0638 UNC Light: UNC0638 in light SILAC media; for Relative to UNC0638 Average: average of UNC Light and UNC Heavy experiments;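 as to all read-outs here: mass spectrometry (Q-Exactive) SILAC quantitation, DMSO/UNC0638 ratio computed after subtracting 3×MBTD355N mutant pull-down background, only proteins with at least twofold 3×MBT over mutant signal considered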

Molecule | 3xMBT/D355N UNC Heavy (3×MBT domain of L3MBTL1) [log base 2] | 3xMBT/D355N UNC Light (3×MBT domain of L3MBTL1) [log base 2] | Relative to UNC0638 UNC Heavy (G9a and GLP) [log base 2] | Relative to UNC0638 UNC Light (G9a and GLP) [log base 2] | Relative to UNC0638 Average (G9a and GLP) [log base 2]
B1 | 3.34 | 3.18 | 0.17 | 0.16 | 0.16
B2 | 2.95 | 2.44 | −0.03 | 0.39 | 0.18
